± gives the uncertainty stated by the source.
Test: self-splicing fitness, log relative to wild type (ln ratio); higher = more splicing; Tetrahymena group I intron in knt gene, E. coli kanamycin selection, DiMSum; sequences stand for … in CUCUCU…GGAGGGAAAAGUUAUCAGGCAUGCACCUGGUAGCUAGUCUUUAAACCAAUAGAUUGCAUCGGUUUAAAAGGCAAGACCGUCAAAUUGCGGGAAAGGGGUCAACAGCCGUUCAGUACCAAGUCUCAGGGGAAACUUUGAGAUGGCCUUGCAAAGGGUAUGGUAAUAAGCUGACGGACAUGGUCCUAACCACGCAGCCAAGUCCUAAGUCAACAGAUCUUCUGUUGAUAUGGAUGCAGUUCACAGACUAAAUGUCGGUCGGGGAAGAUGUAUUCUUCUCAUAAGAUAUAGUCGGACCUCUCCUUAAUGGGAGCUAGCGGAUGAAGUGAUGCAACACUGGAGCCGCUGGGAACUAAUUUGUAUGCGAAAGUAUAUUGAUUAGUUUUGGAGUACUCGUGGUCG
Summary of the method: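 Six replicate transformations of E. coli BL21(DE3) with a pET-22b(+) library were grown overnight at 37°C or 30°C. The library randomised all eight P1ex-region intron nucleotides, the intron lying in the knt kanamycin-resistance gene, and plates were LB agar with or without 25 μg/mL kanamycin plus 100 μg/mL carbenicillin, 50 μM IPTG and 0.2% rhamnose. Pooled colonies were amplicon-sequenced on an Illumina HiSeq 2500, and fitness is the DiMSum error-weighted combination of wild-type-normalised replicate fold changes, kanamycin versus none.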

| Sequence | self-splicing fitness (ln) (30 °C) | self-splicing fitness (ln) (37 °C) |
| --- | --- | --- |
| CUGUAGCAAUAUUACGCGUA | -3.3 ± 0.3 | -2.89 ± 0.25 |
| CUGUAGCAAUAUUACGCUUG | -2.62 ± 0.14 | -2.02 ± 0.16 |
| CUGUAGCAAUAUUACGGCCC | – | -0.731 ± 0.38 |
| CUGUAGCAAUAUUACGGCCU | – | -3.02 ± 0.34 |
| CUGUAGCAAUAUUACGGCUA | – | -1.51 ± 0.39 |
| CUGUAGCAAUAUUACGGGGG | -4.4 ± 0.37 | -2.68 ± 0.31 |
| CUGUAGCAAUAUUACGUAUC | -4.3 ± 0.47 | -1.57 ± 0.38 |
| CUGUAGCAAUAUUACGUAUG | -0.387 ± 0.11 | -0.224 ± 0.16 |
| CUGUAGCAAUAUUACGUCGG | -3.47 ± 0.2 | -1.87 ± 0.18 |
| CUGUAGCAAUAUUACGUGCA | -2.56 ± 0.18 | -2.5 ± 0.16 |
| CUGUAGCAAUAUUACGUUGG | -3.56 ± 0.13 | -1.46 ± 0.11 |
| CUGUAGCAAUAUUACGUUUC | -3.58 ± 0.19 | -2.99 ± 0.32 |
| CUUAAGCAAUAUUACGAAAA | -1.9 ± 0.26 | – |
| CUUAAGCAAUAUUACGACGA | -3.58 ± 0.25 | -2.61 ± 0.23 |
| CUUAAGCAAUAUUACGAGAG | -4.39 ± 0.42 | -2.48 ± 0.45 |
| CUUAAGCAAUAUUACGAGCG | -0.691 ± 0.1 | -0.156 ± 0.15 |
| CUUAAGCAAUAUUACGAGUA | -3.63 ± 0.24 | -1.94 ± 0.2 |
| CUUAAGCAAUAUUACGAUAG | -2.01 ± 0.15 | -0.283 ± 0.15 |
| CUUAAGCAAUAUUACGAUGU | -3.88 ± 0.37 | -0.792 ± 0.21 |
| CUUAAGCAAUAUUACGCAAG | -3.07 ± 0.41 | -2.58 ± 0.34 |
| CUUAAGCAAUAUUACGCCAA | -2.46 ± 0.42 | -2.43 ± 0.33 |
| CUUAAGCAAUAUUACGCUGC | – | -1 ± 0.35 |
| CUUAAGCAAUAUUACGGAAA | -3.23 ± 0.38 | -2.1 ± 0.28 |
| CUUAAGCAAUAUUACGGACU | -3.14 ± 0.15 | -1.62 ± 0.17 |
| CUUAAGCAAUAUUACGGAUG | -0.76 ± 0.056 | -0.0373 ± 0.077 |
| CUUAAGCAAUAUUACGUAUA | -2.9 ± 0.23 | -3.19 ± 0.29 |

| Sequence | self-splicing fitness (ln) (30 °C) | self-splicing fitness (ln) (37 °C) |
| --- | --- | --- |
| CUUAAGCAAUAUUACGUUCA | -2.9 ± 0.27 | -3.79 ± 0.47 |
| CUUAAGCAAUAUUACGUUGC | – | -2.03 ± 0.35 |
| CUUAAGCAAUAUUACGUUUG | -3.89 ± 0.2 | -2.73 ± 0.3 |
| CUUAAGCAAUAUUACGUUUU | -4.2 ± 0.25 | -2.07 ± 0.21 |
| CUUCAGCAAUAUUACGAACU | -3.9 ± 0.37 | -1.75 ± 0.27 |
| CUUCAGCAAUAUUACGACGU | -3.67 ± 0.21 | -2.12 ± 0.21 |
| CUUCAGCAAUAUUACGACUA | -2.12 ± 0.39 | – |
| CUUCAGCAAUAUUACGAUGA | -4.12 ± 0.42 | -1.71 ± 0.25 |
| CUUCAGCAAUAUUACGCAGA | -3.44 ± 0.37 | -2.18 ± 0.22 |
| CUUCAGCAAUAUUACGCAGG | -4.17 ± 0.34 | -2.07 ± 0.26 |
| CUUCAGCAAUAUUACGCGCG | -0.941 ± 0.056 | -0.367 ± 0.087 |
| CUUCAGCAAUAUUACGGCCU | – | -1.66 ± 0.38 |
| CUUCAGCAAUAUUACGGGAU | -2.14 ± 0.084 | -1.34 ± 0.095 |
| CUUCAGCAAUAUUACGGUCU | -2.93 ± 0.15 | -2.21 ± 0.2 |
| CUUCAGCAAUAUUACGGUGA | -3.2 ± 0.21 | -2.67 ± 0.18 |
| CUUCAGCAAUAUUACGUAAA | -3.05 ± 0.15 | -2.12 ± 0.19 |
| CUUCAGCAAUAUUACGUAAC | -2.65 ± 0.32 | -2.27 ± 0.45 |
| CUUCAGCAAUAUUACGUCCA | -2.19 ± 0.29 | -2.63 ± 0.36 |
| CUUCAGCAAUAUUACGUGAA | -2.71 ± 0.12 | -2.72 ± 0.2 |
| CUUCAGCAAUAUUACGUGGC | -2.61 ± 0.23 | -2.08 ± 0.43 |
| CUUCAGCAAUAUUACGUGUC | -3.03 ± 0.13 | -2.3 ± 0.12 |
| CUUCAGCAAUAUUACGUUGG | -3.67 ± 0.23 | -4.08 ± 0.46 |
| CUUGAGCAAUAUUACGAACC | – | -1.54 ± 0.44 |
| CUUGAGCAAUAUUACGAAUA | -3.26 ± 0.48 | – |
| CUUGAGCAAUAUUACGAGCU | -1.6 ± 0.46 | – |

From the supplement of paper PMC7877785
